Measured values: article PMC6699858, “Ternary structure of the outer membrane transporter FoxA with resolved signalling domain provides insights into TonB-mediated siderophore uptake” (eLife, 2019)

Legend:
FoxA = biological target: T1, FoxA (Pseudomonas aeruginosa, UniProt Q9I116); test: tryptophan fluorescence quenching (Kd […]); also ITC in nanodiscs (Kd […]) and co-crystal structures without and with TonBCt; type: binding
T1 construct: Full-length FoxA, purified in nonyl glucopyranoside

[1] = biological target: T2, FoxA from Pseudomonas aeruginosa strain PAO1, full-length (Pseudomonas aeruginosa strain PAO1, UniProt Q9I116 1-820, Signal peptide taken as removed in the outer membrane; text gives the mature start as 44 or 45, and 45 is used. His6 tag removed by TEV, residual TEV-site residues at the C-terminus omitted. Ferrioxam); test: ITC; 150 μM TonBCt in the syringe, 15 μM apo FoxA in MSP1D1/POPC nanodiscs in the cell; 20 mM HEPES, 150 mM NaCl, pH 7.5; 26 °C; single-site model; triplicates, SD; conditions: both partners purified
[2] = biological target: T2, FoxA from Pseudomonas aeruginosa strain …; test: ITC; 150 μM TonBCt in the syringe, 15 μM ferrioxamine B-bound FoxA in MSP1D1/POPC nanodiscs in the cell (dialysed against 1 mM FoaB); 20 mM HEPES, 150 mM NaCl, pH 7.5; 26 °C; single-site model; triplicates, SD; conditions: both partners purified

Molecule | Kd (FoxA) [nM] | Kd [1] [nM] | dH [1] [kcal/mol] | Kd [2] [nM] | dH [2] [kcal/mol]
CC(=O)N([O-])CCCCCNC(=O)CCC(=O)N([O-])CCCCCNC(=O)CCC(=O)N([O-])CCCCCN.[Fe+3] [FoaB, ferrioxamine B] | 100 ± 10 | – | – | – | –
TonBCt, C-terminal domain of TonB1 from Pseudomonas aeruginosa strain PAO1 (residues 251-340) (domain or fragment, UniProt Q51368 251-340, looked up, TonB1, Pseudomonas aeruginosa PAO1, residues 251-340 (C-terminal domain); also called TonB fragment; C-terminal TonB domain; source: E. coli BL21 Gold, purified (HisTrap Ni-NTA, TEV, reverse purification)) DSDIKPLRMDPPVYPRMAQARGIEGRVKVLFTITSDGRIDDIQVLESVPSRMFDREVRQAMAKWRFEPRVSGGKIVARQATKMFFFKIEK | – | 111 | -10.1 | 6.6 | -18.1
